Key:
[1] = target: T1, GRK2 (Homo sapiens, UniProt P25098); assay: In vitro phosphorylation assay: GRK2-mediated phosphorylation of phosducin; type: biochemical; details: n=6-7; read-out: IC50, inhibition of GRK2-induced phosducin phosphorylation
T1 construct: fused on or other part: hexahistidine tag
T1 sequence (P25098 1-669 limits assumed): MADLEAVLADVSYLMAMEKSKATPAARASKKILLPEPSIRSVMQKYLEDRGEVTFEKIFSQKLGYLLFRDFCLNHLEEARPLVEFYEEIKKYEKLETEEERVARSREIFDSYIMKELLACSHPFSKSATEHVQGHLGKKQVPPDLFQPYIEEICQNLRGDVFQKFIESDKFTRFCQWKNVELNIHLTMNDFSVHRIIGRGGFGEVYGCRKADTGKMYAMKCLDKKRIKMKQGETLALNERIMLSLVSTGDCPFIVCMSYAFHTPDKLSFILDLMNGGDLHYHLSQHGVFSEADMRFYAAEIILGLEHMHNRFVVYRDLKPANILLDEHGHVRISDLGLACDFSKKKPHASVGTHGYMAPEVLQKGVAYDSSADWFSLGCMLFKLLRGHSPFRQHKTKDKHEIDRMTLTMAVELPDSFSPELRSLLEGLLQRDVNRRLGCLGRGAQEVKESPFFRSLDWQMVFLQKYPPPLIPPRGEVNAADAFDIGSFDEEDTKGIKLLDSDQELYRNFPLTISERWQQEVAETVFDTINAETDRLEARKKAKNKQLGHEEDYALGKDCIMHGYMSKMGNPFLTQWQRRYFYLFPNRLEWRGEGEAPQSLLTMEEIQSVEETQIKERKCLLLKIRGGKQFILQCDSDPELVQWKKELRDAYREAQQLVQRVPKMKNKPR
Text: Recombinant human GRK2 protein and GRK2-S670A protein was expressed in and purified from Spodoptera frugiperda (Sf9) cells by the baculoviral expression system. The cDNAs encoding hexahistidine-tagged human GRK2 (ADRBK1) GRK2-S670A were subcloned into the pFastBac1 expression plasmid (INVITROGEN™, THERMO FISHER SCIENTIFIC®, Waltham, Mass., USA) using the Sal I/Hind III restriction sites, recombinant baculovirus was generated by the Bac-To-Bac Baculovirus expression system (THERMO FISHER SCIENTIFIC®, Waltham, Mass., USA). Sf9 cells were infected with recombinant baculoviruses at an MOI of 2-3, 48 h after infection cells were harvested by centrifugation, lysed with lysis buffer (300 mM NaCl, 50 mM HEPES, pH 7.5 supplemented with 1% NP40, 1 mM PMSF and protease inhibitor cocktail) and applied to Ni-NTA chromatography. After overnight incubation at 4° C., unbound proteins were removed by washing with lysis buffer (20× column volumes) followed by 1× column volume of 30 mM imidazole-containing lysis buffer. Bound GRK2 was eluted by 300 mM imidazole in lysis buffer, desalted by PD10 column chromatograpy, supplemented with 20% glycerol and stored at −80° C. for further use. […]

[2] = tested on: GPCR phosphorylation; details: Lorenz K, et al., Nature 426, 574-579 (2003); read-out: reported IC50 value for RKIP-mediated inhibition of GPCR phosphorylation; cited from earlier work

B1: RKIP: raf kinase inhibitor protein, a dual-specific GRK2 and Raf kinase inhibitor (protein, UniProt P30086 2-187, looked up)
Phosphatidylethanolamine-bindi …: PVDLSKWSGPLSLQEVDEQPQHPLHVTYAGAAVDELGKVLTPTQVKNRPTSISWDGLDSGKLYTLVLTDPDAPSRKDPKYREWHHFLVVNMKGNDISSGTVLSDYVGSGPPKGTGLHRYVWLVYEQDRPLKCDEPILSNRSGDHRGKFKVASFRKKYELRAPVAGTCYQAEWDDYVPKLYEQLSGK
[1]
  IC50: 950 nM
[2]
  IC50: 460 nM

Source: US11628159B2, “Cell-protective compounds and their use” (ETH ZURICH, priority 2017, dated 2023)
